Results from PMC10897455, “TMEM25 is a Par3-binding protein that attenuates claudin assembly during tight junction development” (EMBO Reports, 2023).

Biological target: the molecule itself
Test: pull-down; GST- and MBP-tagged TMEM25-ECR incubated for 1 h at 4 °C in 150 mM NaCl, 0.1% Triton X-100, 20 mM Tris-HCl pH 7.6; glutathione-Sepharose beads; CBB staining or anti-MBP immunoblot

B1: TMEM25-ECR (residues 27–220), GST- or MBP-tagged (domain or fragment, human, UniProt Q86YD3 27-220, looked up)
chain: ELEPQIDGQTWAERALRENERHAFTCRVAGGPGTPRLAWYLDGQLQEASTSRLLSVGGEAFSGGTSTFTVTAHRAQHELNCSLQDPRSGRSANASVILNVQFKPEIAQVGAKYQEAQGPGLLVVLFALVRANPPANVTWIDQDGPVTVNTSDFLVLDAQNYPWLTNHTVQLQLRSLAHNLSVVATNDVGVTSAS
notes: extracellular region (ECR), residues 27–220; bacterially expressed, non-glycosylated; also called GST–TMEM25-ECR; MBP–TMEM25-ECR; source: E. coli BL21, purified (glutathione-Sepharose 4B or amylose resin)
binding result: binds
